Results on 17 molecules are retold here after US20260274985A1 (MYTHIC THERAPEUTICS, published 2026).

The chains are these.
T1: Human TROP2 Protein, His Tag (Acro Biosystems) (human, UniProt P09758 27-274)
T1 construct: Bought protein; not shown: His tag
T1 sequence (looked up): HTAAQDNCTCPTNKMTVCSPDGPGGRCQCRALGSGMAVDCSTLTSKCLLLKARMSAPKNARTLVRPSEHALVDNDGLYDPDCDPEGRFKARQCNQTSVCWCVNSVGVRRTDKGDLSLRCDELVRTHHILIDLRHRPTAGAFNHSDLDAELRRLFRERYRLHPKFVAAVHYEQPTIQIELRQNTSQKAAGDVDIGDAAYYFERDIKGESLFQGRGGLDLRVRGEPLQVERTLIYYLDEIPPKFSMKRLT

B1: MYT11588 (antibody, V domains shown)
VH: QVQLQQSGSELKKPGASVKVSCKASGYTFTNYGMNWVKQAPGQGLKWMGWINTYTGEPTYHDDFKGRFAFSLDTSVSTAYLQISSLKADDTAVYFCARGGFGSSYWYFDVWGQGSLVTVSS
VL: DIQLTQSPSSLSASVGDRVSITCKASQDVSIAVAWYQQKPGKAPKLLIYSASYRYTGVPDRFSGSGSGTDFTLTISSLQPEDFAVYYCQQHYITPLTFGAGTKVEIK
notes: Sacituzumab variant, His at HCV position 61 (H2 12)
B2: MYT11596 (antibody, V domains shown)
VH: QVQLQQSGSELKKPGASVKVSCKASGYTFTNYGMNWVKQAPGQGLKWMGWINTYTGEPTYTDDFKGRFAFSLDTSVSTAYLQISSLKADDTAVYFCARHGFGSSYWYFDVWGQGSLVTVSS
VL: DIQLTQSPSSLSASVGDRVSITCKASQDVSIAVAWYQQKPGKAPKLLIYSASYRYTGVPDRFSGSGSGTDFTLTISSLQPEDFAVYYCQQHYITPLTFGAGTKVEIK
B3: MYT11590 (antibody, V domains shown)
VH: QVQLQQSGSELKKPGASVKVSCKASGYTFTNYGMNWVKQAPGQGLKWMGWINTYTGEPTYTDHFKGRFAFSLDTSVSTAYLQISSLKADDTAVYFCARGGFGSSYWYFDVWGQGSLVTVSS
VL: DIQLTQSPSSLSASVGDRVSITCKASQDVSIAVAWYQQKPGKAPKLLIYSASYRYTGVPDRFSGSGSGTDFTLTISSLQPEDFAVYYCQQHYITPLTFGAGTKVEIK
notes: Sacituzumab variant, His at HCV position 63 (H2 14)
B4: MYT11609 (antibody, V domains shown)
VH: QVQLQQSGSELKKPGASVKVSCKASGYTFTNYGMNWVKQAPGQGLKWMGWINTYTGEPTYTDDFKGRFAFSLDTSVSTAYLQISSLKADDTAVYFCARGGFGSSYWYFDVWGQGSLVTVSS
VL: DIQLTQSPSSLSASVGDRVSITCKHSQDVSIAVAWYQQKPGKAPKLLIYSASYRYTGVPDRFSGSGSGTDFTLTISSLQPEDFAVYYCQQHYITPLTFGAGTKVEIK
notes: Sacituzumab variant, His at LCV position 25 (L1 02)
B5: MYT11593 (antibody, V domains shown)
VH: QVQLQQSGSELKKPGASVKVSCKASGYTFTNYGMNWVKQAPGQGLKWMGWINTYTGEPTYTDDFKHRFAFSLDTSVSTAYLQISSLKADDTAVYFCARGGFGSSYWYFDVWGQGSLVTVSS
VL: DIQLTQSPSSLSASVGDRVSITCKASQDVSIAVAWYQQKPGKAPKLLIYSASYRYTGVPDRFSGSGSGTDFTLTISSLQPEDFAVYYCQQHYITPLTFGAGTKVEIK
B6: MYT11602 (antibody, V domains shown)
VH: QVQLQQSGSELKKPGASVKVSCKASGYTFTNYGMNWVKQAPGQGLKWMGWINTYTGEPTYTDDFKGRFAFSLDTSVSTAYLQISSLKADDTAVYFCARGGFGSSHWYFDVWGQGSLVTVSS
VL: DIQLTQSPSSLSASVGDRVSITCKASQDVSIAVAWYQQKPGKAPKLLIYSASYRYTGVPDRFSGSGSGTDFTLTISSLQPEDFAVYYCQQHYITPLTFGAGTKVEIK
B7: MYT11607 (antibody, V domains shown)
VH: QVQLQQSGSELKKPGASVKVSCKASGYTFTNYGMNWVKQAPGQGLKWMGWINTYTGEPTYTDDFKGRFAFSLDTSVSTAYLQISSLKADDTAVYFCARGGFGSSYWYFDHWGQGSLVTVSS
VL: DIQLTQSPSSLSASVGDRVSITCKASQDVSIAVAWYQQKPGKAPKLLIYSASYRYTGVPDRFSGSGSGTDFTLTISSLQPEDFAVYYCQQHYITPLTFGAGTKVEIK
notes: Sacituzumab variant, His at HCV position 110 (H3 14)
B8: MYT11595 (antibody, V domains shown)
VH: QVQLQQSGSELKKPGASVKVSCKASGYTFTNYGMNWVKQAPGQGLKWMGWINTYTGEPTYTDDFKGRFAFSLDTSVSTAYLQISSLKADDTAVYFCAHGGFGSSYWYFDVWGQGSLVTVSS
VL: DIQLTQSPSSLSASVGDRVSITCKASQDVSIAVAWYQQKPGKAPKLLIYSASYRYTGVPDRFSGSGSGTDFTLTISSLQPEDFAVYYCQQHYITPLTFGAGTKVEIK
notes: Sacituzumab variant, His at HCV position 98 (H3 02)
B9: MYT11605 (antibody, V domains shown)
VH: QVQLQQSGSELKKPGASVKVSCKASGYTFTNYGMNWVKQAPGQGLKWMGWINTYTGEPTYTDDFKGRFAFSLDTSVSTAYLQISSLKADDTAVYFCARGGFGSSYWYHDVWGQGSLVTVSS
VL: DIQLTQSPSSLSASVGDRVSITCKASQDVSIAVAWYQQKPGKAPKLLIYSASYRYTGVPDRFSGSGSGTDFTLTISSLQPEDFAVYYCQQHYITPLTFGAGTKVEIK
B10: MYT11592 (antibody, V domains shown)
VH: QVQLQQSGSELKKPGASVKVSCKASGYTFTNYGMNWVKQAPGQGLKWMGWINTYTGEPTYTDDFHGRFAFSLDTSVSTAYLQISSLKADDTAVYFCARGGFGSSYWYFDVWGQGSLVTVSS
VL: DIQLTQSPSSLSASVGDRVSITCKASQDVSIAVAWYQQKPGKAPKLLIYSASYRYTGVPDRFSGSGSGTDFTLTISSLQPEDFAVYYCQQHYITPLTFGAGTKVEIK
B11: MYT11601 (antibody, V domains shown)
VH: QVQLQQSGSELKKPGASVKVSCKASGYTFTNYGMNWVKQAPGQGLKWMGWINTYTGEPTYTDDFKGRFAFSLDTSVSTAYLQISSLKADDTAVYFCARGGFGSHYWYFDVWGQGSLVTVSS
VL: DIQLTQSPSSLSASVGDRVSITCKASQDVSIAVAWYQQKPGKAPKLLIYSASYRYTGVPDRFSGSGSGTDFTLTISSLQPEDFAVYYCQQHYITPLTFGAGTKVEIK
notes: Sacituzumab variant, His at HCV position 104 (H3 08)
B12: MYT11608 (antibody, V domains shown)
VH: QVQLQQSGSELKKPGASVKVSCKASGYTFTNYGMNWVKQAPGQGLKWMGWINTYTGEPTYTDDFKGRFAFSLDTSVSTAYLQISSLKADDTAVYFCARGGFGSSYWYFDVWGQGSLVTVSS
VL: DIQLTQSPSSLSASVGDRVSITCHASQDVSIAVAWYQQKPGKAPKLLIYSASYRYTGVPDRFSGSGSGTDFTLTISSLQPEDFAVYYCQQHYITPLTFGAGTKVEIK
notes: Sacituzumab variant, His at LCV position 24 (L1 01)
B13: MYT11589 (antibody, V domains shown)
VH: QVQLQQSGSELKKPGASVKVSCKASGYTFTNYGMNWVKQAPGQGLKWMGWINTYTGEPTYTHDFKGRFAFSLDTSVSTAYLQISSLKADDTAVYFCARGGFGSSYWYFDVWGQGSLVTVSS
VL: DIQLTQSPSSLSASVGDRVSITCKASQDVSIAVAWYQQKPGKAPKLLIYSASYRYTGVPDRFSGSGSGTDFTLTISSLQPEDFAVYYCQQHYITPLTFGAGTKVEIK
B14: MYT11594 (antibody, V domains shown)
VH: QVQLQQSGSELKKPGASVKVSCKASGYTFTNYGMNWVKQAPGQGLKWMGWINTYTGEPTYTDDFKGRFAFSLDTSVSTAYLQISSLKADDTAVYFCHRGGFGSSYWYFDVWGQGSLVTVSS
VL: DIQLTQSPSSLSASVGDRVSITCKASQDVSIAVAWYQQKPGKAPKLLIYSASYRYTGVPDRFSGSGSGTDFTLTISSLQPEDFAVYYCQQHYITPLTFGAGTKVEIK
notes: Sacituzumab variant, His at HCV position 97 (H3 01)
B15: MYT11610 (antibody, V domains shown)
VH: QVQLQQSGSELKKPGASVKVSCKASGYTFTNYGMNWVKQAPGQGLKWMGWINTYTGEPTYTDDFKGRFAFSLDTSVSTAYLQISSLKADDTAVYFCARGGFGSSYWYFDVWGQGSLVTVSS
VL: DIQLTQSPSSLSASVGDRVSITCKAHQDVSIAVAWYQQKPGKAPKLLIYSASYRYTGVPDRFSGSGSGTDFTLTISSLQPEDFAVYYCQQHYITPLTFGAGTKVEIK
notes: Sacituzumab variant, His at LCV position 26 (L1 03)
B16: MYT11598 (antibody, V domains shown)
VH: QVQLQQSGSELKKPGASVKVSCKASGYTFTNYGMNWVKQAPGQGLKWMGWINTYTGEPTYTDDFKGRFAFSLDTSVSTAYLQISSLKADDTAVYFCARGGHGSSYWYFDVWGQGSLVTVSS
VL: DIQLTQSPSSLSASVGDRVSITCKASQDVSIAVAWYQQKPGKAPKLLIYSASYRYTGVPDRFSGSGSGTDFTLTISSLQPEDFAVYYCQQHYITPLTFGAGTKVEIK
notes: Sacituzumab variant, His at HCV position 101 (H3 05)
B17: MYT11591 (antibody, V domains shown)
VH: QVQLQQSGSELKKPGASVKVSCKASGYTFTNYGMNWVKQAPGQGLKWMGWINTYTGEPTYTDDHKGRFAFSLDTSVSTAYLQISSLKADDTAVYFCARGGFGSSYWYFDVWGQGSLVTVSS
VL: DIQLTQSPSSLSASVGDRVSITCKASQDVSIAVAWYQQKPGKAPKLLIYSASYRYTGVPDRFSGSGSGTDFTLTISSLQPEDFAVYYCQQHYITPLTFGAGTKVEIK
notes: Sacituzumab variant, His at HCV position 64 (H2 15)

The assay addresses T1, Human TROP2 Protein, His Tag (Acro …). The assay is described as follows: BLI (Octet). Here is the method: After allowing for four days of protein expression, cell culture supernatants were collected, quantified by SDS-PAGE analysis (DNS), and the pH dependence of the variant was evaluated using biolayer interferometry (BLI) on an Octet RED 96e instrument. Briefly, cell culture supernatants were diluted based on qualitative expression level of the variant determined by visual examination of SDS-PAGE gels, 5 μL of cell culture supernatant was diluted into 195 μL of 1×PBST, pH 7.4 for high expressors, 25 μL of cell culture supernatant was diluted into 175 μL of 1×PBST, pH 7.4 for medium expressors and 100 μL of cell culture supernatant was diluted into 100 μL of 1×PBST, pH 7.4 for low expressors for loading onto the sensor tips. The resulting diluted supernatants were then captured on an anti-human Fc sensor (Forte Bio). A baseline was established using 1×PBST (50 mM Potassium Phosphate Buffer+150 mM NaCl+0.05% Tween 20) pH 7.4, and the sensor was associated with 50 nM of TROP2 (Human TROP2 Protein, His Tag, Acro Biosystems) in 1×PBST pH 7.4 for 120 sec to generate an association curve. In the dissociation phase, the antibody-antigen complex on the sensor was exposed to 1×PBST pH 7.4 or pH 5.4, for 300 sec. Association and dissociation phase curves were examined for the starting ABPC antibody (with no substitutions) and each corresponding antibody variant at pH 5.4 and pH 7.4 to inform on two criteria: a) enhanced dissociation (i.e., higher koff values) at pH 5.4 due to histidine or alanine substitution compared to the starting ABPC, (with no substitutions), and b) reduced dissociation at pH 7.4 (i.e., lower koff values) compared to pH 5.4 in the antibody variant itself and with the starting ABPC (with no substitutions). […] It was also noted that while some mutations obliterated TROP2 binding, others were tolerated with little or n change in TROP2 binding kinetics.
On to B1, for which the binding result is recorded as “binds”. To B2 belongs “binds”; to B3, “binds”; to B4, “binds”.

In the case of B5, the binding result is recorded as “binds”. To B6 belongs “binds”; to B7, “binds”. To B8 belongs “binds”; to B9, “binds”. The result for B10 reads “binds”; that for B11, “binds”; that for B12, “binds”.

Consider B13, for which the binding result is listed as “binds”. Take B14: the binding result is “binds”. As to B15, the binding result was “binds”.

Consider B16, for which the binding result is “binds”.

In the case of B17, the binding result is listed as “binds”.
